From patent US20150307599A1 (GARVAN INSTITUTE OF MEDICAL RESEARCH, published 2015)
Where no end group is shown, it is not given here.

Tests used:
[1] = molecular target: T1, Peptide 3p19 (NPY C terminus with similar a.a. substitutions); experiment: SPR (Biacore), FIGS. 11A and 11B
T1 construct: Poly-alanine 17-mer ending QRW-amide
T1 peptide: AAAAAAAAAAAAAAQRW-NH2
Experimental: (§1) Epitope mapping and determination of the affinity of MAb 5E12-B7 was also performed using a Biacore 2000 unit (GE Healthcare). Briefly, purified MAb 5E12-B7 was biotinylated as described above, except that the biotinylation reaction was performed at a 20:1 molar ratio of biotin:Ig. An SA-Chip (GE Healthcare) was docked into the Biacore 2000 unit and HBS-EP buffer (GE) was allowed to run over all 4 flow channels at 40 μL/min until signal had stabilized. The flow path was then switched to channel 4 only and HBS-EP containing 60 μg/mL biotinylated antibody was injected at 40 μL/min for 5 min to couple MAb 5E12-B7 to the chip via biotin-streptavidin binding. HBS-EP buffer was then run over channel 4 at 40 μL/min for over 30 min to remove all uncoupled Ig from the Biacore system then the flow path was changed to pass through all 4 flow channels. Association and dissociation of the peptides in Table 3 was measured using the Biacore Application Wizard. In each case, a baseline was established by passing HBS-EP over all 4 channels at 40 μL/min for 1 min before association was measure by injection of peptide (diluted to 1, 10, 100 or 1000 nM in HBS-EP) at 40 μL/min for 5 min. Dissociation was measured by allowing HBS-EP to pass over all 4 channels at 40 μL/min for 30 min. The kd, kₐ and KD were determined for each peptide by curve fitting using the BIAevalutation software.

[2] = molecular target: T2, Peptide 3p17 (NPY C terminus with similar a.a. substitutions); experiment: SPR (Biacore), FIGS. 11A and 11B
T2 construct: Poly-alanine 17-mer ending QRH-amide
T2 peptide: AAAAAAAAAAAAAAQRH-NH2
Experimental: as §1

[3] = molecular target: T3, Peptide 3p18 (NPY C terminus with similar a.a. substitutions); experiment: SPR (Biacore), FIGS. 11A and 11B
T3 construct: Poly-alanine 17-mer ending QRF-amide
T3 peptide: AAAAAAAAAAAAAAQRF-NH2
Experimental: as §1

[4] = molecular target: T4, Peptide 3p8 (Poly alanine with last 4 residues NPFF); experiment: SPR (Biacore), FIG. 12
T4 peptide: AAAAAAAAAAAAAPQRF-NH2
Experimental: as §1

[5] = molecular target: T5, Peptide 3p7 (Brain Neuropeptide I); experiment: SPR (Biacore), FIG. 12
T5 peptide: AGEGLSSPFWSLAAPQRF-NH2
Experimental: as §1

[6] = molecular target: T6, Peptide 3p6 (ala-NPFF); experiment: SPR (Biacore), FIG. 12
T6 construct: Last 8 residues of NPFF on a poly-alanine helix
T6 peptide: AAAAAAAAAFLFQPQRF-NH2
Experimental: as §1

[7] = molecular target: T7, human PYY (Phoenix) (human, C-terminal amide (-NH2)); experiment: BLI (Octet RED96), biotinylated MAb on SA sensors, peptide in solution
T7 construct: 36-residue whole peptide; also called hPYY
Experimental: (§2) Affinity of MAb to peptides NPY, mPYY, hPYY, mPP and hPP were measured using an OCTET RED96 system with Octet SA sensors (ForteBio). Briefly, black 96-well plates were prepared with columns containing 200 μL/well of all reagents required for determination of affinity. In general, Octet SA sensors were first placed in wells containing Octet running buffer for 60 seconds to establish a baseline. Sensors were then transferred to wells containing 50 μg/mL biotinylated 5E12-B7 for 480 seconds to load the SA coated tips. Sensors were then regenerated by 3×5 second incubations in Regeneration Buffer (10 mM Glycine, pH 2) followed each time by a 5 second incubation in Octet running buffer. Sensors were then placed in fresh running buffer for 60 seconds to establish a baseline. Association was then measured by incubation the sensors for 10 min in 8 wells containing a serial dilution of peptide (0, 0.33 to 243 nM for NPY and PYY peptides, 0, 9 to 6560 nM for PP peptides). The sensors were then transferred to wells containing Octet running buffer for 15 min to measure dissociation of the peptides. The regeneration step was repeated before measurement of association/dissociation with a different peptide. All peptide measurements were performed in duplicate. The kd, kₐ and KD were determined for each peptide using the accompanying Octet software (Bioforte).
(§3) Affinity parameters of MAb 5E12-B7 were measured against peptides NPY, mPYY, hPYY, mPP and hPP using an Octet Red system (ForteBio). Streptavadin sensors were loaded with biotinylated MAb 5E12-B7. Association and dissociation rates were measured by incubation of the sensors in wells containing serial dilutions of the peptides, followed by incubation in assay buffer.

[8] = molecular target: T8, NPY (mouse NPY, Phoenix) (mouse, C-terminal amide (-NH2)); experiment: as above
T8 construct: 36-residue whole peptide bought from Phoenix Peptides; also called mNPY; neuropeptide Y
Experimental: as §2, §3

[9] = molecular target: T9, Peptide 1p17 (NPY last 17 residues Alanine Scan) (C-terminal amide (-NH2)); experiment: indirect ELISA, peptide coated at 20 ug/mL, MAb at 1 ug/mL
T9 construct: NPY 25-mer with alanine at NPY residue 35
Experimental: (§4) ELISA was used to map the reactivity of purified MAb 5E12-B7 against the peptides described in Table 3. Briefly, ELISA microwell plates (96-well Maxisorp, Nunc) were coated overnight at 4° C. with 50 μL of mapping peptides (Table 3) diluted to 20 μg/mL in carbonate coating buffer (CCB). Between each of the following steps, microwell plates were washed three times with PBST using a plate washer (BioTek). Coated wells were blocked with 200 μL PBS containing 5% w/v skim milk (Diploma). Blocked wells were incubated for 1 hr with 50 μL of MAb 5E12-B7 diluted to 1 μg/mL in skim milk/PBST. Wells were then incubated for 1 hr with 50 μL Peroxidase-conjugated AffiniPure F(ab)2 fragment goat anti-mouse secondary antibody (Jackson) diluted 1:5000 in skim milk/PBST. Ig binding was detected by incubation of wells with 50 μL TMB substrate (Becton Dickinson). Substrate reaction was stopped after 15 min with 50 μL 1M H₂SO₄ and O.D. 450 nm was measured.

[10] = molecular target: T10, Peptide 1p18 (NPY last 17 residues Alanine Scan) (C-terminal amide (-NH2)); experiment: as above
T10 construct: NPY 25-mer with alanine at NPY residue 36
Experimental: as §4

[11] = molecular target: T11, Peptide 2p15 (Poly Ala with shrinking NPY C term); experiment: as above
T11 construct: 15 alanines followed by RY-amide
T11 peptide: AAAAAAAAAAAAAAARY-NH2
Experimental: as §4

[12] = molecular target: T12, Peptide 1p16 (NPY last 17 residues Alanine Scan) (C-terminal amide (-NH2)); experiment: as above
T12 construct: NPY 25-mer with alanine at NPY residue 34
Experimental: as §4

T7 sequence (peptide, as listed by the source): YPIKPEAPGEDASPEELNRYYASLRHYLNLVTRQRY

B1: MAb 5E12-B7 (antibody, V domains shown)
VH: QVQLQHPGTEVVKPGASVKLSCKASGYTFTNYWMHWVKQRPGQGLEWIGNIDPSNGGTNYNEKFKSKATLTVDKSSSTAYMQLSSLTSEDSAVYYCASFAYWGQGTLVTVSA
VL: DIQMTQSPASLSASVGETVTITCRASGNIHNYLAWYQQKQGKSPQLLVYNAKTLADGVPSRFSGSGSGTQYSLKISSLRPEDFGSYYCQHFWSPPFTFGSGTKLEIK
notes: Biotinylated for the Biacore and Octet assays; also called PYY/NPY antibody (5E12); anti-NPY/PYY antibody 5E12
[1]
  binding result: no binding
[2]
  binding result: no binding
[3]
  binding result: no binding
[4]
  binding result: no binding
[5]
  binding result: no binding
[6]
  binding result: no binding
[7]
  Kd: 2.17 nM
  koff: 0.000385 s⁻¹
  kon: 179000 M⁻¹ s⁻¹
[8]
  Kd: 4.7 nM
  koff: 0.000429 s⁻¹
  kon: 92600 M⁻¹ s⁻¹
[9]
  binding result: no binding
[10]
  binding result: no binding
[11]
  binding result: no binding
[12]
  binding result: no binding
